Results on 2 substances are retold here after article PMC2933840.

The test deals with Flag-Lrp4-mCherry (mouse) (UniProt Q8VI56). Description: flow cytometry on cells.
Chain of UniProt Q8VI56 (Q8VI56 21-1905): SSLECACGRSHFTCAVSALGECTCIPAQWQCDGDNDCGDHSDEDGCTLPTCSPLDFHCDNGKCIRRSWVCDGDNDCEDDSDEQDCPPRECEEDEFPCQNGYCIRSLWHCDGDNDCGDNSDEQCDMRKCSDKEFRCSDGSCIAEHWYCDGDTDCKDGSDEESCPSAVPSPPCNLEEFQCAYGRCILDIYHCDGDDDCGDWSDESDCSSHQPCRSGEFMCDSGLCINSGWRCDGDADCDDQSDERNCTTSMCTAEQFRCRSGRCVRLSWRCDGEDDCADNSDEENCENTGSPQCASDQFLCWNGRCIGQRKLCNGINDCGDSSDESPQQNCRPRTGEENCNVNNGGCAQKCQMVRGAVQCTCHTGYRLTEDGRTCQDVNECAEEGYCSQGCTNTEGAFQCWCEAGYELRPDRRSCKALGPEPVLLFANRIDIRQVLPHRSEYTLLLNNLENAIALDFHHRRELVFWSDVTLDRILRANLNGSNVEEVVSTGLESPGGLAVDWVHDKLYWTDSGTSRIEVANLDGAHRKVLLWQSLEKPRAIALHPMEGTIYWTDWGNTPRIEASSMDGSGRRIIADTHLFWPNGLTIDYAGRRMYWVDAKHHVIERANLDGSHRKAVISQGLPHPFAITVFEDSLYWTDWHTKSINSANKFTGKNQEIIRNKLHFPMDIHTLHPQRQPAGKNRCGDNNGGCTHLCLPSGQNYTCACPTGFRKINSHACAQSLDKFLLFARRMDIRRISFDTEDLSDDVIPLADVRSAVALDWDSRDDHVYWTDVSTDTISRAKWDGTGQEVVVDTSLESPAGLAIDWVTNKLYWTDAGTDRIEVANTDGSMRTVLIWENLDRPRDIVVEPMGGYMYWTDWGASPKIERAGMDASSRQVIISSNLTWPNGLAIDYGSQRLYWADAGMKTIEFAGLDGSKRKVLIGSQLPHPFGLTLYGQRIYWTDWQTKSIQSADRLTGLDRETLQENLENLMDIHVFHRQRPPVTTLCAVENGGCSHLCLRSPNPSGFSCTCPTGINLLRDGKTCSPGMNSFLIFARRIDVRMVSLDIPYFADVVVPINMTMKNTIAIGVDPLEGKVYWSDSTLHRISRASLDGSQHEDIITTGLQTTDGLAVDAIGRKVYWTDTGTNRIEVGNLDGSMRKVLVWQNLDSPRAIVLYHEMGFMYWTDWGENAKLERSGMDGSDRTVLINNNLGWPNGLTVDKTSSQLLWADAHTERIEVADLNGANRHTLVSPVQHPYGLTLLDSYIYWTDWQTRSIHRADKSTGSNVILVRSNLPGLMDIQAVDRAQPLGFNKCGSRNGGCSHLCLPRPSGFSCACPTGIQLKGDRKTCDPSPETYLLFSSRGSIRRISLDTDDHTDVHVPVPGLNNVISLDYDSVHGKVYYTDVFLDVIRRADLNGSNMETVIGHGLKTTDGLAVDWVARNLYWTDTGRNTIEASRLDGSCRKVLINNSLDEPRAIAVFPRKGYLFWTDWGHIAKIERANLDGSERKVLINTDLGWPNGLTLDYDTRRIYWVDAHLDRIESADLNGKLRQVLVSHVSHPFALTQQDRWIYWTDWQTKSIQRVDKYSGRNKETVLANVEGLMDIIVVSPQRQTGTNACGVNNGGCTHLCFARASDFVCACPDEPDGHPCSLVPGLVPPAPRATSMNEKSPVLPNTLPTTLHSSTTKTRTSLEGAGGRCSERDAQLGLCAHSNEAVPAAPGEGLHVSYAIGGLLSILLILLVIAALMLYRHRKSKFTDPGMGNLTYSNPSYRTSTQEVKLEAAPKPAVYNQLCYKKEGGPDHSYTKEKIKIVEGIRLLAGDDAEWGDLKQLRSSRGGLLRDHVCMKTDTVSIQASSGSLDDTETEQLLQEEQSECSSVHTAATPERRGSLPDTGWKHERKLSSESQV

Take “50 kd C-terminal fragment of Agrin B8 (domain or fragment)”: the EC50 – broadly, the midpoint of the concentration-response curve – was 6 nM and the fold increase of binding with calcium against without calcium turned out to be 20 fold.

Regarding “50 kd C-terminal fragment of Agrin B0 (domain or fragment)”, the fold higher affinity of Agrin B8 than of Agrin B0 was found to be 100 fold.
